Measured values reported in patent US20230051701A1 (Bristol-Myers Squibb, published 2023).
Numbering of substitutions follows the chain as printed. In names and notes the source's numbering stands. Several values for one entry are separate records, joined by “and”; a condition that tells them apart may be missing. Equal entries are not always repeated.

T1: rhCD73 bound to his-tag magnet beads (human, UniProt P21589 27-549, limits assumed)
T1 sequence: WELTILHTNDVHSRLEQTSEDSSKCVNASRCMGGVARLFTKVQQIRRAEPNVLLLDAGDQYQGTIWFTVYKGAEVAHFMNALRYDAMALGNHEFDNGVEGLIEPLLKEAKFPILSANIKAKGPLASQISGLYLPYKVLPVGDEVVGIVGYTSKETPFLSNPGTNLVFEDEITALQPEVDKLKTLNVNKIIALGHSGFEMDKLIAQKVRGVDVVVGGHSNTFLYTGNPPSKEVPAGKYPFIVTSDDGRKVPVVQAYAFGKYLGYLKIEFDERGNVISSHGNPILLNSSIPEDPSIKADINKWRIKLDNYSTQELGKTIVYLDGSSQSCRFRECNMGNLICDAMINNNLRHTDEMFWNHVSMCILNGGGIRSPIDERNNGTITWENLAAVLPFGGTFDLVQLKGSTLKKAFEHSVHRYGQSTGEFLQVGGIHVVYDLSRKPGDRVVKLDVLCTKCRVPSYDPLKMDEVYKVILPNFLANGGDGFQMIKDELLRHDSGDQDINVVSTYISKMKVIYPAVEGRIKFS

T2: human CD73 on cells (Calu6, NCI-H292, SK-MEL-24, human tumor cell lines, human B and T cells) (human, UniProt P21589 27-549)
T2 sequence: T1 sequence

T3: N-terminal domain of hCD73 (residues 26-336 of human CD73), His-tagged (human, UniProt P21589 26-336)
T3 construct: also called N-hCD73; N-hCD73-his
T3 sequence: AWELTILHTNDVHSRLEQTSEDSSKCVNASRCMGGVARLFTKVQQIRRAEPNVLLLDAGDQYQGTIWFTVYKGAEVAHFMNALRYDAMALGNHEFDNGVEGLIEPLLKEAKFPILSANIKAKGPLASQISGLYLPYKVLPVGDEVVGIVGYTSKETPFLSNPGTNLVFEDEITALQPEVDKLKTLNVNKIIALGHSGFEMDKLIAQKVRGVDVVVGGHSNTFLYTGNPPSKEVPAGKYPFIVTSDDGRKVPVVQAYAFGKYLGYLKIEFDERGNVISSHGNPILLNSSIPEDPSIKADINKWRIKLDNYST

B1: 10D2 (antibody, human IgG4, kappa, V domains shown)
VH: QVQLVESGGGVVQPGRSLRLSCAASGFTFSNYGLHWVRQAPGKGLEWVAVIRYDGSNKYYADSVKGRFTISRDNSKNTLYLQMSSLRAEDTAVYYCARGGSSWYPDGLDVWGQGTTVTVSS
VL: DIQMTQSPSSLSASVGDRVTITCRASQGISSWLAWYQQKPEKAPKSLIYAASSLQSGVPSRFSGSGSGTDFTLTISSLQPEDFATYYCQQYNSYPLTFGGGTKVEIKR
notes: also called 10D2-2
B2: 24H2 (antibody, human IgG4, kappa, V domains shown)
VH: B1 VH with L34M, R52W, S56G, Y80F, S84N, G107A, L108F, V110I, T116M
VL: B1 VL
notes: also called 24H2-1
B3: CD73.4-IgG2.5G1-KH (antibody)
heavy: QVQLVESGGGVVQPGRSLRLSCAASGFTFSNYGMHWVRQAPGKGLEWVAVILYDGSNKYYPDSVKGRFTISRDNSKNTLYLQMNSLRAEDTAVYYCARGGSSWYPDSFDIWGQGTMVTVSSASTKGPSVFPLAPSSRSTSESTAALGCLVKDYFPEPVTVSWNSGALTSGVHTFPAVLQSSGLYSLSSVVTVPSSNFGTQTYTCNVDHKPSNTKVDKTVERKCCVECPPCPAPPVAGPSVFLFPPKPKDTLMISRTPEVTCVVVDVSHEDPEVKFNWYVDGVEVHNAKTKPREEQYNSTYRVVSVLTVLHQDWLNGKEYKCKVSNKALPAPIEKTISKAKGQPREPQVYTLPPSREEMTKNQVSLTCLVKGFYPSDIAVEWESNGQPENNYKTTPPVLDSDGSFFLYSKLTVDKSRWQQGNVFSCSVMHEALHNHYTQKSLSLSPGK
light: not shown
B4: CD73.4-IgG2.5 (antibody)
heavy: B3 heavy with K274Q, Y296F, Y300F, L309V, A327G, A339T, V397M
light: not shown
B5: CD73.4-IgG2.5G1.1f-KH (antibody)
heavy: B3 heavy with A330S, P331S
light: not shown
B6: CD73.4-IgG2.3G1-KH (antibody)
heavy: B3 heavy with S135C, C223S
light: not shown
B7: CD73.4-IgG2.3-plusTHT (antibody)
heavy: QVQLVESGGGVVQPGRSLRLSCAASGFTFSNYGMHWVRQAPGKGLEWVAVILYDGSNKYYPDSVKGRFTISRDNSKNTLYLQMNSLRAEDTAVYYCARGGSSWYPDSFDIWGQGTMVTVSSASTKGPSVFPLAPCSRSTSESTAALGCLVKDYFPEPVTVSWNSGALTSGVHTFPAVLQSSGLYSLSSVVTVPSSNFGTQTYTCNVDHKPSNTKVDKTVERKSCVETHTCPPCPAPPVAGPSVFLFPPKPKDTLMISRTPEVTCVVVDVSHEDPEVQFNWYVDGVEVHNAKTKPREEQFNSTFRVVSVLTVVHQDWLNGKEYKCKVSNKGLPAPIEKTISKTKGQPREPQVYTLPPSREEMTKNQVSLTCLVKGFYPSDIAVEWESNGQPENNYKTTPPMLDSDGSFFLYSKLTVDKSRWQQGNVFSCSVMHEALHNHYTQKSLSLSPGK
light: not shown
B8: CD73.4-IgG2.3-plusGGG (antibody)
heavy: B7 heavy with T227G, H228G, T229G
light: not shown
B9: CD73.4-IgG2.5-plusTHT (antibody)
heavy: B7 heavy with C135S, S223C
light: not shown
B10: CD73.6-IgG2-C219S-IgG1.1f (antibody)
heavy: B3 heavy with G55S, S135C, C223S, A330S, P331S
light: not shown
notes: also called CD73.6-IgG2CS IgG1.1f
B11: CD73.11-IgG2-C219S (antibody)
heavy: QVQLVESGGGVVQPGRSLRLSCAASGFTFSNYGMHWVRQAPGKGLEWVAVIWYDESNKYYADSVKGRFTISRDNSKNTLFLQMNSLRAEDTAVYYCARGYNSRWYPDAFDIWGQGTMVTVSSASTKGPSVFPLAPCSRSTSESTAALGCLVKDYFPEPVTVSWNSGALTSGVHTFPAVLQSSGLYSLSSVVTVPSSNFGTQTYTCNVDHKPSNTKVDKTVERKSCVECPPCPAPPVAGPSVFLFPPKPKDTLMISRTPEVTCVVVDVSHEDPEVQFNWYVDGVEVHNAKTKPREEQFNSTFRVVSVLTVVHQDWLNGKEYKCKVSNKGLPAPIEKTISKTKGQPREPQVYTLPPSREEMTKNQVSLTCLVKGFYPSDIAVEWESNGQPENNYKTTPPMLDSDGSFFLYSKLTVDKSRWQQGNVFSCSVMHEALHNHYTQKSLSLSPG
light: not shown
notes: 4D4 variable regions; also called CD73.11-IgG2CS; mAb-CD73.11-Vh-hHC-IgG2-C219S
B12: 4C3 (antibody, human IgG1, kappa, V domains shown)
VH: EVQLVESGGGLVQPGRSLRLSCAASGFTFDDYAMHWVRQAPGKGLEWVSGISWKSGSIGYADSVKGRFTISRDNAKNSLYLQMNSLRAEDTALYYCVKGYYVILTGLDYWGQGTLVTVSS
VL: not shown
notes: IgG1za from hybridoma; also called 4C3-1

Target: T1, rhCD73 bound to his-tag magnet beads
Assay: cell-based or functional assay

Row | EC50 (nM), inhibition of bead-bound rhCD73 enzymatic activity [nM] | Binder
1 | 6.94 | B1
2 | 4.18 | B2

Target: T2, human CD73 on cells (Calu6, NCI-H292, …)
Assay: cell-based or functional assay

Row | CD73 Inhibition EC50(nM), cAMP assay, Calu6 [nM] | CD73 Inhibition S:B, cAMP assay, Calu6 | Binder
3 | 0.44 | 42 | B3
4 | 2.17 | 51 | B4
5 | 0.87 | 45 | B5
6 | 1.7 | 52 | B6
7 |  | 33 | B7
8 | 1.26 |  | B8
9 | 0.9 | 44 | B9

Target: T3, N-terminal domain of hCD73 (residues …)
Assay: SPR, mAb captured on protein A
Method: For these experiments, protein A (Pierce) was immobilized to a density of 3000 — 4000 RU on flow cells 1-4 of a CM5 sensor chip (GE Healthcare) using standard ethyl(dimethylaminopropyl) carbodiimide (EDC)/N-hydroxysuccinimide (NHS) chemistry, with ethanolamine blocking, in a running buffer of 0.01 M HEPES pH 7.4, 0.15 M NaCl, 3 mM EDTA, 0.005% v/v tween 20. […] The running buffer for the kinetic experiments was 10 mM sodium phosphate, 130 mM sodium chloride, 0.05% tween 20, pH 7.1. The surfaces were regenerated after each cycle using two 30 s pulses of 10 mM glycine pH 1.5 at a flow rate of 30 μl/min. Sensogram data was double-referenced and then fitted to a 1:1 Langmuir model using Biacore T100 evaluation software v2.0.4, to determine the association rate constant (ka), the dissociation rate constant (kd), and the equilibrium dissociation constant (KD).

Row | Kd | koff | kon | Binder
10 | 1.6 nM | 0.00095 s⁻¹ | 610000 M⁻¹ s⁻¹ | B1
11 | 14 nM | 0.0032 s⁻¹ | 230000 M⁻¹ s⁻¹ | B2
12 | 0.72 nM | 0.00022 s⁻¹ | 300000 M⁻¹ s⁻¹ | B10
13 | 3.5 nM and 6.5 nM | 0.00028 s⁻¹ and 0.00051 s⁻¹ | 80000 M⁻¹ s⁻¹ and 79000 M⁻¹ s⁻¹ | B11

Target: T2, human CD73 on cells (Calu6, NCI-H292, …)
Assay: cell-based or functional assay
Remark: another data set of the same source

Row | Ymax, cAMP HTRF assay | Binder
14 | 80 % of 100 nM 11F11 | B12

Target: T2, human CD73 on cells (Calu6, NCI-H292, …)
Assay: cell-based or functional assay
Remark: another data set of the same source

Row | Ymax, CD73 internalization, Calu6, 2 h | EC50 (nM), CD73 internalization, Calu6, 2 h [nM] | Binder
15 | 29 % of 100 nM 11F11 |  | B1
16 | 51 % of 100 nM 11F11 | 8.2 | B2
